# Source: paper PMC10185811
# Tests used:
# [1] = target: His6-RPN1 WT (human) (UniProt Q13200); test: BLI; Octet; His6-RPN1 loaded on the nickel sensor; NUB1L, GST-FAT10, NUB1L with GST-FAT10 or NUB1L with GST in solution; Octet buffer (PBS, 0.1% Triton X-100, 1x ROTIBlock); 1:1 binding model
# [2] = target: GST-RAD23 (UniProt P54727); test: Octet (BLI); settings: GST-RAD23 on the sensor; GST control curve in the same panel reaches est. 0.21 nm (above the T1 curve); read off a plot
# [3] = target: GST-NUB1L, Q9Y5A7-1; test: Octet (BLI); settings: GST-NUB1L on the sensor; His6-RPN1 variant in solution; parent: est. 0.58; read off a plot
# Sequence of GST-NUB1L, Q9Y5A7-1 (Q9Y5A7 whole entry): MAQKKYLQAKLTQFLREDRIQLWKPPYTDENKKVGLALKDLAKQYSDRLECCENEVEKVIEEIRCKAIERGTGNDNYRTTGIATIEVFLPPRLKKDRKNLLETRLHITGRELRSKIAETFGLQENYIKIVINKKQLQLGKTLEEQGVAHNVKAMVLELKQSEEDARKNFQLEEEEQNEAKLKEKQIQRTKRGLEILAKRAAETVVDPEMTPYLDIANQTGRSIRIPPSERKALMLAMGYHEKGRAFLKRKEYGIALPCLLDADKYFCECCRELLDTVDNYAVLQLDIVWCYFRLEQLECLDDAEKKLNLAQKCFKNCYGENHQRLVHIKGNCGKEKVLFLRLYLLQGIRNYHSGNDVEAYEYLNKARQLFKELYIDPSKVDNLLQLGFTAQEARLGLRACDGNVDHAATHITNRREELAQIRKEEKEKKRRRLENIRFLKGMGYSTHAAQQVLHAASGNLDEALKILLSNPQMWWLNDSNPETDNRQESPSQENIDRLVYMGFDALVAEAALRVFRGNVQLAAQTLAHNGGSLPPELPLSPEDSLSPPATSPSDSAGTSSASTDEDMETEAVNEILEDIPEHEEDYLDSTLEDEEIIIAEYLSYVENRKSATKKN
# Sequence of His6-RPN1 WT (Q13200 whole entry, change not shown): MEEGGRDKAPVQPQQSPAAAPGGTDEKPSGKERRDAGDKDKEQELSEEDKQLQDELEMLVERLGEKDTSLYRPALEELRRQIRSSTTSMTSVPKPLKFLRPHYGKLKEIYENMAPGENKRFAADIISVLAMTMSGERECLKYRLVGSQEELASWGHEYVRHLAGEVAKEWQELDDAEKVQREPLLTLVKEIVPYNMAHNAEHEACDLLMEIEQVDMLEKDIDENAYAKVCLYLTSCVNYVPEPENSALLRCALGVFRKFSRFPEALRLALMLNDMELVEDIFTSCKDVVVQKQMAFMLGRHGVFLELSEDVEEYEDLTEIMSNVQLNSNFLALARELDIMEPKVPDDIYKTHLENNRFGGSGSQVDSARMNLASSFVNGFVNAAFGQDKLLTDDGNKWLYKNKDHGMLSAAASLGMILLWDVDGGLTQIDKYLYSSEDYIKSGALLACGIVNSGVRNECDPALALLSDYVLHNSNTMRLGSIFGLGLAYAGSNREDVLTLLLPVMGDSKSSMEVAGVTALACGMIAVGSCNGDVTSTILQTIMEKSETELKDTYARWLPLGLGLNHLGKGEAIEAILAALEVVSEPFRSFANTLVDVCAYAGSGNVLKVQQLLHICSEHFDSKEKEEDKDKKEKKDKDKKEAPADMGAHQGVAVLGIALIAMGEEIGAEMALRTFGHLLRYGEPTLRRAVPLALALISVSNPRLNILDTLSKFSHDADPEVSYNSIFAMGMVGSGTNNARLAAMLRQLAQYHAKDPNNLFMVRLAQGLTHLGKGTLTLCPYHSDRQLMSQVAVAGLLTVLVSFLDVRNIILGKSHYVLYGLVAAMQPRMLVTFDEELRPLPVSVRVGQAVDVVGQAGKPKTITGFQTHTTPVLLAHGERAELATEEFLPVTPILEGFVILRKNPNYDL
# Sequence of NUB1L-bound GST-FAT10 (NUB1L co-incubated with GST-FAT10) (Q9Y5A7 whole entry): as the sequence (Q9Y5A7 whole entry) above
# Sequence of NUB1L-bound GST-FAT10 (NUB1L co-incubated with GST-FAT10) (O15205 whole entry): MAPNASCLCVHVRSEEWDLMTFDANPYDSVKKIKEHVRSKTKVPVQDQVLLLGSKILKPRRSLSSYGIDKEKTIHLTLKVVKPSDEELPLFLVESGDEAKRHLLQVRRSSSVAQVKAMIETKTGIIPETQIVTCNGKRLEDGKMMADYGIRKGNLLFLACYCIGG
# Sequence of GST-RAD23 (P54727 whole entry): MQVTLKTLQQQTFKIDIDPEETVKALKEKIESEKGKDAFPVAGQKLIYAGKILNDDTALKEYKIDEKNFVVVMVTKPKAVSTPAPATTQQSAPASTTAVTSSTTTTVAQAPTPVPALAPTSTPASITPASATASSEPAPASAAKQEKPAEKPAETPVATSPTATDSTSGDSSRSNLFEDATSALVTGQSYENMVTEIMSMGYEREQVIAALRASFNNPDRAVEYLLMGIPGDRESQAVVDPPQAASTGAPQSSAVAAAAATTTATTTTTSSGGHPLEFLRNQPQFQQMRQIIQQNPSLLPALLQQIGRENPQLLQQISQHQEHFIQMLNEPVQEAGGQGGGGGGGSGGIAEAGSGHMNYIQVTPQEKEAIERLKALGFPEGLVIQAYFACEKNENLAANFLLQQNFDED
fold increase of the affinity for RPN1 against NUB1L alone [1] [fold],response [2] [nm],response [3] [nm],Substance
4,–,–,NUB1L-bound GST-FAT10 (NUB1L co-incubated with GST-FAT10) (from UniProt Q9Y5A7-1 1-615; O15205 1-165) (complex)
–,0.19,0.37,His6-RPN1 WT (from UniProt Q13200) T1
